# Experimental data published in the Immune Epitope Database (IEDB).
# Experiments:
# HLA-B*51:01 = experiment: IEDB peptide-MHC binding, purified MHC/direct/fluorescence; filed as Kd, often an IC50 or EC50 that approximates it; ≥ and ≤ were set here for values at or beyond the usual limits of such assays; conditions: source organism: Mycobacterium tuberculosis
# HLA-B*38:01 = experiment: as above; conditions: source organism: Mycobacterium tuberculosis str. Haarlem
# HLA-A*69:01 = experiment: as above; conditions: source organism: Mycobacterium tuberculosis
# HLA-B*57:01 = experiment: as above; conditions: source organism: Mycobacterium tuberculosis
# HLA-A*03:01 = experiment: as above; conditions: source organism: Mycobacterium tuberculosis
# HLA-B*46:01 = experiment: as above; conditions: source organism: Mycobacterium tuberculosis
# HLA-A*02:01 = experiment: as above; conditions: source organism: Mycobacterium tuberculosis
# HLA-B*15:17 = experiment: as above; conditions: source organism: Mycobacterium tuberculosis
# HLA-B*40:01 = experiment: as above; conditions: source organism: Mycobacterium tuberculosis
# HLA-A*31:01 = experiment: as above; conditions: source organism: Mycobacterium tuberculosis
# HLA-B*58:01 = experiment: as above; conditions: source organism: Mycobacterium tuberculosis
# HLA-B*18:01 = experiment: as above; conditions: source organism: Mycobacterium tuberculosis
# HLA-A*11:01 = experiment: as above; conditions: source organism: Mycobacterium tuberculosis
# HLA-B*48:01 = experiment: as above; conditions: source organism: Mycobacterium tuberculosis
# HLA-B*27:05 = experiment: as above; conditions: source organism: Mycobacterium tuberculosis
# HLA-A*01:01 = experiment: as above; conditions: source organism: Mycobacterium tuberculosis
# HLA-B*15:01 = experiment: IEDB peptide-MHC binding, purified MHC/competitive/fluorescence; filed as Kd, often an IC50 or EC50 that approximates it; ≥ and ≤ were set here for values at or beyond the usual limits of such assays; conditions: source organism: Mycobacterium tuberculosis variant bovis BCG str. Pasteur 1173P2
sequence,measurement,setting,value
VPRENATAF,Kd,HLA-B*51:01,≥ 20 µM
same,Kd,HLA-B*38:01,≥ 20 µM
same,Kd,HLA-A*69:01,≥ 20 µM
same,Kd,HLA-B*57:01,≥ 20 µM
same,Kd,HLA-A*03:01,≥ 20 µM
same,Kd,HLA-B*46:01,15.9 µM
same,Kd,HLA-A*02:01,≥ 20 µM
same,Kd,HLA-B*15:17,≥ 20 µM
same,Kd,HLA-B*40:01,≥ 20 µM
same,Kd,HLA-A*31:01,≥ 20 µM
same,Kd,HLA-B*58:01,≥ 20 µM
same,Kd,HLA-B*18:01,0.598 µM
same,Kd,HLA-A*11:01,≥ 20 µM
same,Kd,HLA-B*48:01,≥ 20 µM
same,Kd,HLA-B*27:05,≥ 20 µM
same,Kd,HLA-A*01:01,≥ 20 µM
same,Kd,HLA-B*15:01,≥ 20 µM
